Source: patent publication US20200010508A1 (REGENTS OF THE UNIVERSITY OF MICHIGAN, published 2020)
Ends that are not written are not given here.

Experiments:
[1] = molecular target: T1, Glypican-3 on human HCC cells (Hep3B, HepG2) and in HCC tissue (human, UniProt P51654 25-554); assay: confocal microscopy, Hep3B siGPC3 vs siCL
T1 construct: whole, on cells; Endogenous GPC3 on cells; also used here for GPC3 in sections of Hep3B xenografts and human HCC specimens; also called GPC3
Text: The specificity of lead candidate peptide reagent binding was validated by siRNA knockdown of GPC3 in human HCC cells. The cells were transfected with siRNA to knockdown cell surface expression of GPC3. […] These cells were transfected with non-targeting siRNA (siCL) for use as control. […] FIG. 6-1D,E show ˜4-fold reduction in fluorescence intensity with both the peptide reagent and anti-GPC3 antibody, respectively, for Hep3B cells transfected with siRNA (siGPC3) to knock down GPC3 expression. […] FIG. 6-2M, N, O and P show the same result as original FIG. 6-1A, B, D and E.

[2] = molecular target: T1, Glypican-3 on human HCC cells (Hep3B, …); assay: immunofluorescence on human biopsies, ANOVA on log-transformed data
[3] = molecular target: T1, Glypican-3 on human HCC cells (Hep3B, …); assay: confocal microscopy of xenograft and normal mouse liver sections, n=26
Protocol: FIGS. 13A-I show validation of specific peptide binding to GPC3 overexpressed in mouse HCC xenograft tumors. Confocal microscopy of A) ALL*-Cy5.5 compared to B) QLE*-Cy5.5 to sections of Hep3B xenograft tumors. Fluorescence intensities were measured from sets of 3 (dashed white) boxes with dimensions of 20×20 μm2.
The specimens were also sectioned for collection of confocal images to perform microscopic validation of peptide binding ex vivo. We found increased cell surface staining of ALL*-Cy5.5 compared with QLE*-Cy5.5 to Hep3B xenograft (arrow), FIG. 13A,B. Overexpression of GPC3 on cell surface of Hep3B xenograft was confirmed with known antibody, FIG. 13C.

[4] = molecular target: T1, Glypican-3 on human HCC cells (Hep3B, …); assay: confocal microscopy on cells, ANOVA on log-transformed data
Text: (§1) FIGS. 6-2A-Q show validation of specific peptide binding to cells in vitro. On confocal microscopy, we observed strong fluorescence intensity from ALL*-Cy5.5 binding to the surface (arrow) of A) Hep3B and B) HepG2 human HCC cells, and minimal signal with C) SK-Hep1 cells. D-F) Minimal signal is observed with the scrambled control peptide QLE*-Cy5.5 for all cells. Strong binding (arrow) is also observed with AF488-labeled anti-GPC3 antibody used as a positive control for G) Hep3B and H) HepG2 and minimal signal with I) SK-Hep1. […] The Hep3B versus SK-Hep1 difference was also larger for antibody than QLE (P=2.3×10⁻⁸, 6.0-fold larger). Intensity was measured with 6 replicates per condition and fitted to an ANOVA model with terms for 9 means to log-transformed data. […] We further validated specific peptide binding to GPC3 using siRNA knockdown. […] Q) Quantified fluorescence intensities. The siCL vs siGPC3 difference was 7.4 times bigger for ALL than the same difference for QLE (P=7.8×10⁻⁵), and the difference for antibody was 8.9 times bigger than for QLE (P=2.5×10⁻⁵), by ANOVA on log-transformed data. Results are an average of 6 images collected independently.

[5] = molecular target: T1, Glypican-3 on human HCC cells (Hep3B, …); assay: confocal microscopy on Hep3B cells with siRNA knockdown of GPC3
Text: as §1, with “On” for “FIGS. 6-2A-Q show validation of specific peptide binding to cells in vitro. On”
The specificity of lead candidate peptide reagent binding was validated by siRNA knockdown of GPC3 in human HCC cells. The cells were transfected with siRNA to knockdown cell surface expression of GPC3. […] These cells were transfected with non-targeting siRNA (siCL) for use as control.

[6] = molecular target: T1, Glypican-3 on human HCC cells (Hep3B, …); assay: flow cytometry, mean fluorescence of Hep3B cells with 0-200 nM peptide; apparent dissociation constant
Protocol: (§2) The apparent dissociation constant (kd) was measured for the optimized GPC3 peptide to Hep3B cells to provide an assessment of peptide binding affinity. The ALL*-Cy5.5 peptide reagent was serially diluted in PBS at concentrations ranging from 0 to 200 nM in 25 nM increments and incubated with Hep3B cells. The mean fluorescence intensities was measured on flow cytometry. The equilibrium dissociation constant kd=1/kₐ was calculated by performing a least squares fit of the data to the non-linear equation I=(I₀+Iₘₐₓkₐ[X])/([…]). I₀and Iₘₐₓ are the initial and maximum fluorescence intensities, corresponding to no peptide and at saturation, respectively, and [X] represents the concentration of the bound peptide.

[7] = molecular target: T1, Glypican-3 on human HCC cells (Hep3B, …); assay: affinity restated in the discussion of the studies (flow cytometry on Hep3B cells)
Protocol: as §2

[8] = molecular target: T1, Glypican-3 on human HCC cells (Hep3B, …); assay: cell-based or functional assay

T1 sequence (P51654 25-554 limits assumed): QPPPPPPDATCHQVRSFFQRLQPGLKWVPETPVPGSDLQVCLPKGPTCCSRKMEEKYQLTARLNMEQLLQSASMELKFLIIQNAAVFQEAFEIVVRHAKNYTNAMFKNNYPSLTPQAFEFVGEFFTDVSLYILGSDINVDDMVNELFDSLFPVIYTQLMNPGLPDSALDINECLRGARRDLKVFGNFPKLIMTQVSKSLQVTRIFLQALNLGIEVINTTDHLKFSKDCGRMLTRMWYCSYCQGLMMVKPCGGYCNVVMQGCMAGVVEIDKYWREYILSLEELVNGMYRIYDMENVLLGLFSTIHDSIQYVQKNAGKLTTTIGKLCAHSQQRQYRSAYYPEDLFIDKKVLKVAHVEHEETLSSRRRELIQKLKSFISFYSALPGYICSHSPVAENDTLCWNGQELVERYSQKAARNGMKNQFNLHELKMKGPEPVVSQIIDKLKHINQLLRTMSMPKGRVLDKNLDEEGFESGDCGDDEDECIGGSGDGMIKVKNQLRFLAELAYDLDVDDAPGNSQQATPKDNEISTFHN

B1: ALL*-Cy5.5 peptide reagent (ALLANHEELFQT-GGGSK-Cy5.5) (peptide)
peptide: ALLANHEELFQTGGGSK(sulfo‑Cy5.5)
notes: also called lead candidate GPC3 peptide; optimized GPC3 peptide
How did the “fold reduction in fluorescence intensity on GPC3 knockdown” value [1] turn out when B1 was run?
Its value is ~4 fold.

And the “fold, signal in human HCC against adenoma” value [2]?
The value was 2.48 fold.

What about the “fold, signal in human HCC against cirrhosis” value [2] of the same binder?
The value was 2.05 fold.

And the “fold, signal in human HCC against normal liver” value [2]?
Its value is 3.43 fold.

And the “fold, intensity from peptide binding to HCC (Hep3B xenograft) against normal liver” value [3]?
Its value is 2.22 fold.

And the “fold, intensity difference Hep3B vs SK-Hep1 against the same difference for QLE*” value [4]?
The value was 8.2 fold.

What about the “fold, intensity difference HepG2 vs SK-Hep1 against the same difference for QLE*” value [4] of the same binder?
The value was 3.3 fold.

What about the “fold, siCL vs siGPC3 difference against the same difference for QLE” value [5] of the same binder?
Its value is 7.4 fold.

And the Kd [6]?
The Kd was 71 nM.

And the Kd [7]?
Its Kd is 71.3 nM.

And the “fluorescent intensity of ALL*-Cy5.5 against control peptide QLE*-Cy5.5, in vivo dual axes confocal endomicroscopy” value [8]?
The value was 2.9 fold.

And the “target-to-background (T/B) ratio at 2 hours, in vivo whole-body NIR fluorescence imaging of Hep3B xenograft” value [8]?
The value was 3.91.

And the “target-to-background ratio of ALL*-Cy5.5 against QLE*-Cy5.5, in vivo NIR laparoscopy” value [8]?
The value was 2.8 fold.

What about the “target-to-background ratio, in vivo NIR laparoscopy of Hep3B xenograft 2 hours after injection” value [8] of the same binder?
The value was 8.3.

For QLELTFHANLEAGGGSK(sulfo‑Cy5.5) [QLE*-Cy5.5 scrambled control peptide (QLELTFHANLEA-GGGSK-Cy5.5)], which “target-to-background (T/B) ratio at 2 hours, in vivo whole-body NIR fluorescence imaging of Hep3B xenograft” value [8] is on record?
The value was 1.12.

And the “target-to-background ratio, in vivo NIR laparoscopy of Hep3B xenograft 2 hours after injection” value [8]?
The value was 3.

For ALLANHEELFQT [unlabeled ALL* peptide (ALLANHEELFQT)], which “reduction of T/B ratio of ALL*-Cy5.5 by blocking with 3-fold unlabeled targeting peptide dose” value [8] is on record?
The value was 1.65 fold.

What about the “reduction of T/B ratio of ALL*-Cy5.5 by blocking with 10-fold unlabeled targeting peptide dose” value [8] of the same binder?
The value was 3.56 fold.
